The target in this experiment is recombinant mouse CD47 antigen (mouse) (UniProt Q61735). Description: SPR.
UniProt Q61735, sequence (Q61735 19-303): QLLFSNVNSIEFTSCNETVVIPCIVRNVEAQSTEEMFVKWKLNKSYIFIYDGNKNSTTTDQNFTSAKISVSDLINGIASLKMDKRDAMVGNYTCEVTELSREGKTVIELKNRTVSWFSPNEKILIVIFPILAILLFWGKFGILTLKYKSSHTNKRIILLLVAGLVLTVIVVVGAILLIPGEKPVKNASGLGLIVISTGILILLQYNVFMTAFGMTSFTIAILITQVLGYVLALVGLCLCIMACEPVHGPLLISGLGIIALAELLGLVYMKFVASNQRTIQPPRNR

B1: anti–CTLA-4×SIRPα heterodimer (bispecific antibody, V domains shown)
VH: QVKLEESGPGLVNPSQSLSLSCSVTGYSITSGYGWNWIRQFPGQKVEWMGFIYYEGSTYYNPSIKSRISITRDTSKNQFFLQVNSVTTEDTATYYCARQTGYFDYWGQGTMVTVSS
VL: DVMMTQSPSSMSVSAGEKATISCKSSQSLFNSNAKTNYLNWYMQKPGQSPKLLTYYASTRHTGVPDRFRGSGSGTDFTLTISSVQDEDQAFYYCQQWYDYPYTFGAGTKLEIK
Take B1: the fold lower affinity than its affinity to CTLA-4 stood at 10 fold and the fold reduction in affinity against SIRPα-Fc came to 5 fold.

For the origin of these results see publication PMC10234635.
